# Test results reported in the RNAGym collection of RNA variant scans (doi:10.1093/molbev/msab373).
# B1: Azoarcus group I ribozyme (parent)
# chain: GUGCCUUGCGCCGGGAAACCACGCAAGGGAUGGUGUCAAAUUCGGCGAAACCUAAGCGCCCGCCCGGGCGUAUGGCAACGCCGAGCCAAGCUUCGGCGCCUGCGCCGAUGAAGGUGUAGAGACUAGACGGCACCCACCUAAGGCAAACGCUAUGGUGAAGGCAUAGUCCAGGGAGUGGCGAAAGUCACACAAACCGG
# Variants of: B1
# Assay: reverse-splicing fitness (ratio to wild type); higher = more active; in vitro selection; Mg2+ level not given
# Method in brief: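 An in vitro group I ribozyme library with randomized positions was T7-transcribed and gel-purified. In triplicate, 10 pmol RNA in EPPS pH 7.5 was reacted with 50 pmoles of a 30-nt RNA substrate for 1 h at 37 °C across several added MgCl2 levels (1–48 mM), then stopped with EDTA. Products were reverse transcribed from a substrate-complementary primer, PCR-amplified and sequenced (HiSeq 4000). Fitness is a variant's read proportion after selection over that before, normalised to wild type.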
row,Variant,reverse-splicing fitness
1,C82A A111U A120C C169U,0.0143
2,C82A A111U A120C C169U U176A,0.0177
3,C82A A111U A120C C169U U176C,0.0158
4,C82A A111U A120C C169U U176G,0.00659
5,C82A A111U A120C U176A,0.0152
6,C82A A111U A120C U176C,0.0279
7,C82A A111U A120C U176G,0.00616
8,C82A A111U A120G,0.0152
9,C82A A111U A120G A145C,0.0126
10,C82A A111U A120G A145C C150A,0.00759
11,C82A A111U A120G A145C C150A C169A,0.00789
12,C82A A111U A120G A145C C150A C169A U176A,0.0128
13,C82A A111U A120G A145C C150A C169A U176C,0.00664
14,C82A A111U A120G A145C C150A C169A U176G,0.00551
15,C82A A111U A120G A145C C150A C169G,0.00858
16,C82A A111U A120G A145C C150A C169G U176A,0.0253
17,C82A A111U A120G A145C C150A C169G U176C,0.0151
18,C82A A111U A120G A145C C150A C169G U176G,0.00564
19,C82A A111U A120G A145C C150A C169U,0.00834
20,C82A A111U A120G A145C C150A C169U U176A,0.0189
21,C82A A111U A120G A145C C150A C169U U176C,0.0122

row,Variant,reverse-splicing fitness
1,C82A A111U A120G A145C C150A C169U U176G,0.0059
2,C82A A111U A120G A145C C150A U176A,0.00932
3,C82A A111U A120G A145C C150A U176C,0.0098
4,C82A A111U A120G A145C C150A U176G,0.00549
5,C82A A111U A120G A145C C150G,0.00667
6,C82A A111U A120G A145C C150G C169A,0.00846
7,C82A A111U A120G A145C C150G C169A U176A,0.00838
8,C82A A111U A120G A145C C150G C169A U176C,0.00639
9,C82A A111U A120G A145C C150G C169A U176G,0.00554
10,C82A A111U A120G A145C C150G C169G,0.00674
11,C82A A111U A120G A145C C150G C169G U176A,0.00863
12,C82A A111U A120G A145C C150G C169G U176C,0.00725
13,C82A A111U A120G A145C C150G C169G U176G,0.00452
14,C82A A111U A120G A145C C150G C169U,0.00766
15,C82A A111U A120G A145C C150G C169U U176A,0.0132
16,C82A A111U A120G A145C C150G C169U U176C,0.0117
17,C82A A111U A120G A145C C150G C169U U176G,0.00584
18,C82A A111U A120G A145C C150G U176A,0.00504
19,C82A A111U A120G A145C C150G U176C,0.00759
20,C82A A111U A120G A145C C150G U176G,0.00318
21,C82A A111U A120G A145C C150U,0.00935

row,Variant,reverse-splicing fitness
1,C82A A111U A120G A145C C150U C169A,0.00869
2,C82A A111U A120G A145C C150U C169A U176A,0.0127
3,C82A A111U A120G A145C C150U C169A U176C,0.00677
4,C82A A111U A120G A145C C150U C169A U176G,0.00508
5,C82A A111U A120G A145C C150U C169G,0.00823
6,C82A A111U A120G A145C C150U C169G U176A,0.0224
7,C82A A111U A120G A145C C150U C169G U176C,0.0134
8,C82A A111U A120G A145C C150U C169G U176G,0.00608
9,C82A A111U A120G A145C C150U C169U,0.00725
10,C82A A111U A120G A145C C150U C169U U176A,0.0202
11,C82A A111U A120G A145C C150U C169U U176C,0.0127
12,C82A A111U A120G A145C C150U C169U U176G,0.00596
13,C82A A111U A120G A145C C150U U176A,0.0105
14,C82A A111U A120G A145C C150U U176C,0.0114
15,C82A A111U A120G A145C C150U U176G,0.00589
16,C82A A111U A120G A145C C169A,0.0074
17,C82A A111U A120G A145C C169A U176A,0.0141
18,C82A A111U A120G A145C C169A U176C,0.00818
19,C82A A111U A120G A145C C169A U176G,0.0048
20,C82A A111U A120G A145C C169G,0.0105
21,C82A A111U A120G A145C C169G U176A,0.0247

row,Variant,reverse-splicing fitness
1,C82A A111U A120G A145C C169G U176C,0.0184
2,C82A A111U A120G A145C C169G U176G,0.00418
3,C82A A111U A120G A145C C169U,0.00838
4,C82A A111U A120G A145C C169U U176A,0.0212
5,C82A A111U A120G A145C C169U U176C,0.0136
6,C82A A111U A120G A145C C169U U176G,0.00478
7,C82A A111U A120G A145C U176A,0.0112
8,C82A A111U A120G A145C U176C,0.012
9,C82A A111U A120G A145C U176G,0.00543
10,C82A A111U A120G A145G,0.0152
11,C82A A111U A120G A145G C150A,0.0095
12,C82A A111U A120G A145G C150A C169A,0.0112
13,C82A A111U A120G A145G C150A C169A U176A,0.0191
14,C82A A111U A120G A145G C150A C169A U176C,0.0248
15,C82A A111U A120G A145G C150A C169A U176G,0.00817
16,C82A A111U A120G A145G C150A C169G,0.00912
17,C82A A111U A120G A145G C150A C169G U176A,0.0172
18,C82A A111U A120G A145G C150A C169G U176C,0.0255
19,C82A A111U A120G A145G C150A C169G U176G,0.00589
20,C82A A111U A120G A145G C150A C169U,0.00929
21,C82A A111U A120G A145G C150A C169U U176A,0.0197
